From patent US20100317566A1 (MOREHOUSE SCHOOL OF MEDICINE, published 2010)

What was measured:
Test in all cases: FLAG-peptide resin pulldown from Jurkat lysate, SDS-PAGE, mass spectrometry
[1] = molecular target: T1, Mortalin/GRP75 (UniProt P38646 47-679)
T1 construct: Endogenous protein pulled down from Jurkat cell lysate, identified by mass spectrometry and by Western blot (~75 kDa); also called glucose-regulated protein 75

[2] = molecular target: T2, Vimentin (UniProt P08670 2-466)
T2 construct: Endogenous protein pulled down from Jurkat cell lysate, identified by mass spectrometry

[3] = molecular target: T3, GRP78 (UniProt P11021 19-654)
T3 construct: Endogenous protein pulled down from Jurkat cell lysate, identified by mass spectrometry

[4] = molecular target: T4, HSC70 (UniProt P11142 2-646)
T4 construct: Endogenous protein pulled down from Jurkat cell lysate, identified by mass spectrometry

Measured: binding result

T1 sequence (P38646 47-679 limits assumed): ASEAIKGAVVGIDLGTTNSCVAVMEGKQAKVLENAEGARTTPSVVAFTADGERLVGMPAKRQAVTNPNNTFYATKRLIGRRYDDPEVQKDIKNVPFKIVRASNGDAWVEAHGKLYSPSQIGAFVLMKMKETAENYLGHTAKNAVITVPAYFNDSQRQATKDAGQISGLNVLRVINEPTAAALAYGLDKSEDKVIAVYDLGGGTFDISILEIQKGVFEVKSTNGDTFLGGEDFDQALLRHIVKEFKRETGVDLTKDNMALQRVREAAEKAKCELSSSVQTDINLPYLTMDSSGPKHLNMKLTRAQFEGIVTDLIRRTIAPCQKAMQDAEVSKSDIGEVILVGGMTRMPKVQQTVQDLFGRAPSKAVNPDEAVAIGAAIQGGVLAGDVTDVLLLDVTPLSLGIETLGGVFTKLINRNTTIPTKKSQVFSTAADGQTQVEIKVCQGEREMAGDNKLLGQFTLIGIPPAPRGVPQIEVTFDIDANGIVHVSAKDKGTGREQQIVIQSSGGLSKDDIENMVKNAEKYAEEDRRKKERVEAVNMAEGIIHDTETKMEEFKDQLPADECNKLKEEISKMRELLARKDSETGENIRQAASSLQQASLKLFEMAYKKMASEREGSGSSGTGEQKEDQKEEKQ
T3 sequence (P11021 19-654 limits assumed): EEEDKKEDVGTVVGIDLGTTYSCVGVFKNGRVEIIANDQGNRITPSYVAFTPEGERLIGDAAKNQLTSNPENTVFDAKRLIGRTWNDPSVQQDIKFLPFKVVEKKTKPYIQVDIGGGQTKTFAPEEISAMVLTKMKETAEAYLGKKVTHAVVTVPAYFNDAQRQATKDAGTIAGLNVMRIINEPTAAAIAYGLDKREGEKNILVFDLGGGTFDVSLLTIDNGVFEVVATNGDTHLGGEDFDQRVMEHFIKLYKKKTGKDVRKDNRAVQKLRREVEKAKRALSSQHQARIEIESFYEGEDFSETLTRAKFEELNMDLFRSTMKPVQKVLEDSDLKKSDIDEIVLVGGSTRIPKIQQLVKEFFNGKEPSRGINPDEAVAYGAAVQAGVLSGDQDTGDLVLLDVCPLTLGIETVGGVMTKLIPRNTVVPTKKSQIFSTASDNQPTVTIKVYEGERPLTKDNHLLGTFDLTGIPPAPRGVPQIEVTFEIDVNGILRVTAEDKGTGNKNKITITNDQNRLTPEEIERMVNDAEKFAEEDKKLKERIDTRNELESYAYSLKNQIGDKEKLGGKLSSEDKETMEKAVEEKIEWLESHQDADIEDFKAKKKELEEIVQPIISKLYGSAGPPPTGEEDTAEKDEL
T4 sequence (P11142 2-646 limits assumed): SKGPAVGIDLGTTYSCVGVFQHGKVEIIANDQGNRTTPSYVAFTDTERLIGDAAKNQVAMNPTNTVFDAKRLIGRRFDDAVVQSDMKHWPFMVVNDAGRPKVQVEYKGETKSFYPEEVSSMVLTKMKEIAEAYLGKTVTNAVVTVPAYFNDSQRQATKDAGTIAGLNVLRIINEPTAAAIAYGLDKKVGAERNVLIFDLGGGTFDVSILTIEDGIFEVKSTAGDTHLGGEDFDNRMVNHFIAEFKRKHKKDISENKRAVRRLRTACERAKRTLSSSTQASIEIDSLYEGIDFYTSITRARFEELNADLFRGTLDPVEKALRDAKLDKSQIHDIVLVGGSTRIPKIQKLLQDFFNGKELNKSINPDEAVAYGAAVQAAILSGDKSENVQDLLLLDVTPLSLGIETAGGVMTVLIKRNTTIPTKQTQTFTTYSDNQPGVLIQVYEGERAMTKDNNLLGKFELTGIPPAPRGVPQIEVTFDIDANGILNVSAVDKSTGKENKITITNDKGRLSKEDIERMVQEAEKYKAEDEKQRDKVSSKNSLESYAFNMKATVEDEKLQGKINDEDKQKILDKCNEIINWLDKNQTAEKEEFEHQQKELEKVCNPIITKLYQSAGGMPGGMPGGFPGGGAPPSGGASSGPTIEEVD
T2 sequence (P08670 2-466 limits assumed): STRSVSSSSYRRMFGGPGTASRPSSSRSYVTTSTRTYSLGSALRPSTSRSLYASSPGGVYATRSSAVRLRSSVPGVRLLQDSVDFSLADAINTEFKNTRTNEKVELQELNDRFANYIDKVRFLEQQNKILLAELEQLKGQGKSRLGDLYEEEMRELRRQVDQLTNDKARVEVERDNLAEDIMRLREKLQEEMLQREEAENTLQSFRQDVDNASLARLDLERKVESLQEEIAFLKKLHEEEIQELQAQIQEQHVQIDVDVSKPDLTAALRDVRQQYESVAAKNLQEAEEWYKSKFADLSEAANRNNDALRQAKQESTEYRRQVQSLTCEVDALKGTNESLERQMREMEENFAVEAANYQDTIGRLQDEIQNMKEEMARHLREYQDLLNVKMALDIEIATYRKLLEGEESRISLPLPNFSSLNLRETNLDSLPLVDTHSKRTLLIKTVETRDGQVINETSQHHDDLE

B1: HIV-1 NefSMRmt peptide (H2N-AGFPVAAAGFPVDYKDDDDK-OH) (peptide)
peptide: H-AGFPVAAAGFPVDYKDDDDK-OH
notes: Made commercially; also called SMRmut; HIV-1 NefSMRmut
no binding: all assays above
